Here are results for one molecule from patent publication US20130052670A1 (MERCK, published 2013).

For assay [1], the target named is T1, Aβ oligomers (ADDLs, amyloid-β derived diffusible ligands) prepared from Aβ42 (UniProt P05067 672-713).
T1 construct: domain: amyloid β peptide 1-42; Heterogeneous mixture of multimers; number of chains not defined; Concentrations are calculated on the Aβ monomer molecular weight (MW 4513); also called ADDL species of Aβ oligomers; Aβ oligomer standards
Briefly: one-sided ELISA on coated plates. The procedure: (§1) Next day, plates were washed five times with PBS+0.05% Tween-20 and blocked overnight with Casein blocking buffer (Thermo Scientific, Waltham, Mass.) and 0.05% Tween-20. […] After two hours at room temperature incubation, the plates were washed and alkaline phosphatase conjugated anti-human IgG (ThermoScientific, Waltham, Mass.) was added at 0.08 μg/ml. After incubation for 45 minutes at room temperature, the plates were washed and Tropix CDP star (Applied Biosystems, Foster City, Calif.) was added. Luminescence was detected after 30 minutes on an EnVision® plate reader (PerkinElmer, Waltham, Mass.). Curve fits were completed using GraphPad Prism (GraphPad Software, Inc., San Diego, Calif.) software.

The target in assay [2] is T1, Aβ oligomers (ADDLs, amyloid-β derived …). Briefly: one-sided ELISA, plate coated with Aβ oligomers (50 pmol/well), 19.3 titrated, anti-human IgG-AP, luminescence. The procedure:
as §1

Assay [3] deals with T2, Aβ40 monomer (amyloid β peptide 1-40) (UniProt P05067 672-711).
T2 construct: domain: amyloid β peptide 1-40; also called monomeric Aβ40; Aβ monomer
T2 sequence (P05067 672-711 limits assumed): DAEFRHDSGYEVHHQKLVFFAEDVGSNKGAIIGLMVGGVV
Briefly: one-sided ELISA, plate coated with Aβ40 monomer (100 pmol/well), 19.3 titrated, anti-human IgG-AP, luminescence. Here is the method:
as §1

T1 sequence (P05067 672-713 limits assumed): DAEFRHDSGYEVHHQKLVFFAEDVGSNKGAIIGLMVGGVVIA

B1: anti-Aβ oligomer antibody 19.3 (antibody, V domains shown)
VH: EVQLVESGGGLVQPGGSLRLSCAASGFTFSSFGMHWVRQAPGKGLEWVAYISRGSSTIYYADTVKGRFTISRDNAKNSLYLQMNSLRAEDTAVYYCARGITTALDYWGQGTLVTVSS
VL: DVVMTQSPLSLPVTPGEPASISCRSSQSIVHSNGNTYLEWYLQKPGQSPQLLIYKASNRFSGVPDRFSGSGSGTDFTLKISRVEAEDVGVYYCFQGSRLGPSFGQGTKLEIK
notes: In the sandwich assays it was coated on plates or covalently coupled to paramagnetic micro-particle beads; not shown: human immunoglobulin kappa light chain constant region
As for B1, the “fold greater potency than for Aβ40 monomer” value in assay [1] is roughly 3.7 fold. Also, the 50% effective concentration (EC50) (in general, the concentration needed to bring the measured effect to its halfway point) was 1.6 nM in assay [2] and 4.3 nM in assay [3].
